Test results as given in article PMC9482650, “Quantitative fragmentomics allow affinity mapping of interactomes” (Nature Communications, 2022).

Assays:
Test in all cases: holdup assay
Parameters in all cases: key: below the threshold = too weak to quantify, mostly under pKd 3.1 to 4
Details in all cases: plain residues with an end cap or a label only (N-terminal biotin on a linker: ado-ado)
MPP2, Q14168 = target: T1, MPP2, Q14168
T1 sequence (Q14168 180-250, limits assumed, looked up): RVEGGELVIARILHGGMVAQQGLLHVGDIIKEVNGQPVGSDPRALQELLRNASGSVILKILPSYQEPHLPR

APBA1_2, Q02410 = target: T2, APBA1_2, Q02410
T2 sequence (Q02410 742-832, limits assumed, looked up): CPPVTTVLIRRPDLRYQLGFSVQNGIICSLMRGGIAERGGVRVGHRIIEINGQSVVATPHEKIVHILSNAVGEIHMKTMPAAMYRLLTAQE

DLG4_1, P78352 = target: DLG4_1, P78352
Sequence of DLG4_1, P78352 (P78352 62-152): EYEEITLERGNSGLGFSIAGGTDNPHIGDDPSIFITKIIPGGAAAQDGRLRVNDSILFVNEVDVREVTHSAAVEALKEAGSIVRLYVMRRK

AHNAK1, Q09666 = target: AHNAK1, Q09666
Sequence of AHNAK1, Q09666 (Q09666 4-100): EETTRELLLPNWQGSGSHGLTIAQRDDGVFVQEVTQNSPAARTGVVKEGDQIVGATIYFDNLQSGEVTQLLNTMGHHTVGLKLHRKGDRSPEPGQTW

IL16_3, Q14005 = target: IL16_3, Q14005
Sequence of IL16_3, Q14005 (Q14005 1107-1207): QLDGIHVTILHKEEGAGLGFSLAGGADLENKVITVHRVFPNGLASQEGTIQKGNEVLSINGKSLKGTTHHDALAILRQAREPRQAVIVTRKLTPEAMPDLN

NOS1, P29475 = target: NOS1, P29475
Sequence of NOS1, P29475 (P29475 9-101): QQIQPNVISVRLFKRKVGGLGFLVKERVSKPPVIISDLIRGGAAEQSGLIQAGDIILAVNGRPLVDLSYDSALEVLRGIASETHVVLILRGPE

FRMPD2_3, Q68DX3 = target: FRMPD2_3, Q68DX3
Sequence of FRMPD2_3, Q68DX3 (Q68DX3 1073-1166): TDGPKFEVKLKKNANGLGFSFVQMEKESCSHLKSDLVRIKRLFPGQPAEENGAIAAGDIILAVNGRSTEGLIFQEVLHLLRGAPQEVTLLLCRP

GRIP2_5, Q9C0E4 = target: GRIP2_5, Q9C0E4
Sequence of GRIP2_5, Q9C0E4 (Q9C0E4 544-642): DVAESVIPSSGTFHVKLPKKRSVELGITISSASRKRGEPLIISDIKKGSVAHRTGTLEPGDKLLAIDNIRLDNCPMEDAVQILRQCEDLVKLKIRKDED

DLG3_1, Q92796 = target: T3, DLG3_1, Q92796
T3 sequence (Q92796 125-227, limits assumed, looked up): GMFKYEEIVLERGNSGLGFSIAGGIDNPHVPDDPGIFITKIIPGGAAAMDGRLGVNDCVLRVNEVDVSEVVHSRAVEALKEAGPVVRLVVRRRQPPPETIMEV

SYNJ2BP, P57105 = target: T4, SYNJ2BP, P57105
T4 sequence (P57105 8-110, limits assumed, looked up): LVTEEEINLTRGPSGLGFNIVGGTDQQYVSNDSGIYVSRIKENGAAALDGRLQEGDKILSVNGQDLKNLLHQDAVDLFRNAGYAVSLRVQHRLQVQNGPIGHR

GRIP2_4, Q9C0E4 = target: GRIP2_4, Q9C0E4
Sequence of GRIP2_4, Q9C0E4 (Q9C0E4 446-548): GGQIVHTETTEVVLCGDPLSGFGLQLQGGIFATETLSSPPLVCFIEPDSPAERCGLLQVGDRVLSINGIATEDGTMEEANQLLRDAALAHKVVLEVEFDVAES

RHPN1, Q8TCX5 = target: T5, RHPN1, Q8TCX5
T5 sequence (Q8TCX5 508-602, limits assumed, looked up): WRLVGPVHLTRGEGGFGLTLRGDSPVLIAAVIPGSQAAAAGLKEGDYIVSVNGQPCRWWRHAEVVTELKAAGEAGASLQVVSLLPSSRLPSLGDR

PDLIM1, O00151 = target: PDLIM1, O00151
Sequence of PDLIM1, O00151 (O00151 1-87): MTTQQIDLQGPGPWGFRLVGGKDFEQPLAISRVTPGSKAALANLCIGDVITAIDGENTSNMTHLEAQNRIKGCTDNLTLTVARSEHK

DLG3_3, Q92796 = target: T6, DLG3_3, Q92796
T6 sequence (Q92796 374-475, limits assumed, looked up): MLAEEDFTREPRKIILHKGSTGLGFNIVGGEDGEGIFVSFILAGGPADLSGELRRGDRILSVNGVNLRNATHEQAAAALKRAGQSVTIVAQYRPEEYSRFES

NHERF3_1, Q5T2W1 = target: T7, NHERF3_1, Q5T2W1
T7 sequence (Q5T2W1 4-100, limits assumed, looked up): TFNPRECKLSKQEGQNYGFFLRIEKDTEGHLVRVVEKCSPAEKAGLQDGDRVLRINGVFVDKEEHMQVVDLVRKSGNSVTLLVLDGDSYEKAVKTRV

SNX27, Q96L92 = target: SNX27, Q96L92
LNX2_2, Q8N448 = target: T8, LNX2_2, Q8N448
T8 sequence (Q8N448 334-432, limits assumed, looked up): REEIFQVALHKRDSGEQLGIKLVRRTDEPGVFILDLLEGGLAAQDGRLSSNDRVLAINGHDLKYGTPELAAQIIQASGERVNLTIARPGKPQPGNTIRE

Inadl_8, Q8NI35 = target: Inadl_8, Q8NI35
Sequence of Inadl_8, Q8NI35 (Q8NI35 1425-1530): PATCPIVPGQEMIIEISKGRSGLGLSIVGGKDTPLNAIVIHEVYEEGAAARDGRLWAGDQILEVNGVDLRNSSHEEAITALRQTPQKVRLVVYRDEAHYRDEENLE

GRID2IP_2, A4D2P6 = target: GRID2IP_2, A4D2P6
Sequence of GRID2IP_2, A4D2P6 (A4D2P6 272-370): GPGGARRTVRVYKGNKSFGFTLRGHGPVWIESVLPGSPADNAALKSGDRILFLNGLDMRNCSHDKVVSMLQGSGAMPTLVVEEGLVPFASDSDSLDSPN

APBA1_1, Q02410 = target: T9, APBA1_1, Q02410
T9 sequence (Q02410 651-752, limits assumed, looked up): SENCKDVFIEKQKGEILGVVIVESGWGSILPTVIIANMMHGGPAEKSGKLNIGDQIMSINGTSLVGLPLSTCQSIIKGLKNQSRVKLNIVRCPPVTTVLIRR

HTRA1, Q92743 = target: HTRA1, Q92743
Sequence of HTRA1, Q92743 (Q92743 360-477): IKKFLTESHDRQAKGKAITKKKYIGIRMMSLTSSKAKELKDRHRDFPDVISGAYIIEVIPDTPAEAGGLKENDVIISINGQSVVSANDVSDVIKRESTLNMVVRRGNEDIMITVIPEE

PICK1, Q9NRD5 = target: PICK1, Q9NRD5
Sequence of PICK1, Q9NRD5 (Q9NRD5 17-115): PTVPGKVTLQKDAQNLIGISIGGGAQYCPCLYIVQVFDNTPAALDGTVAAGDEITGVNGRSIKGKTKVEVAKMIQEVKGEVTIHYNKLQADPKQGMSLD

GRIP1_5, Q9Y3R0 = target: T10, GRIP1_5, Q9Y3R0
T10 sequence (Q9Y3R0 568-668, limits assumed, looked up): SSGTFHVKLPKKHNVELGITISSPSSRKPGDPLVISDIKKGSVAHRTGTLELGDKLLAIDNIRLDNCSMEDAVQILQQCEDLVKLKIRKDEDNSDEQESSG

MAGI1_1, Q96QZ7 = target: MAGI1_1, Q96QZ7
Sequence of MAGI1_1, Q96QZ7 (Q96QZ7 1-106): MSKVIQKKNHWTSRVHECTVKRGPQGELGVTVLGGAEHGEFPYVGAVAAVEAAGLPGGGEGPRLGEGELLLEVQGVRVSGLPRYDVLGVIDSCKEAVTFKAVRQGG

TIAM2, Q8IVF5 = target: T11, TIAM2, Q8IVF5
T11 sequence (Q8IVF5 885-986, limits assumed, looked up): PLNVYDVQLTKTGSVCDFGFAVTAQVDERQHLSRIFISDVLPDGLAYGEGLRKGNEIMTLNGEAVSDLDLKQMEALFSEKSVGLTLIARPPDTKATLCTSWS

GRIP1_3, Q9Y3R0 = target: T12, GRIP1_3, Q9Y3R0
T12 sequence (Q9Y3R0 247-346, limits assumed, looked up): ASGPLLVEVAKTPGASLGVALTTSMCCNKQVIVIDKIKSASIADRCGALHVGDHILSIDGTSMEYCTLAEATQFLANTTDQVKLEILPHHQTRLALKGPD

Measured: pKd

PEYLGLDVPV [ERBB2, P04626]
3.96: LNX2_2, Q8N448
3.9: NOS1, P29475
4.25: PICK1, Q9NRD5
3.59: HTRA1, Q92743
3.94: SNX27, Q96L92
below the threshold: all other assays above

DDENIRTSDV [PLEKHA2, Q9HB19]
3.92: RHPN1, Q8TCX5
4.84: SNX27, Q96L92
3.69: DLG4_1, P78352
4.94: Inadl_8, Q8NI35
4.38: SYNJ2BP, P57105
4.19: GRID2IP_2, A4D2P6
below the threshold: all other assays above

TSQESEDTYL [TBC1D10A, Q9BXI6]
4.11: PICK1, Q9NRD5
4.45: RHPN1, Q8TCX5
4.7: HTRA1, Q92743
3.93: SYNJ2BP, P57105
5.27: SNX27, Q96L92
5.69: NHERF3_1, Q5T2W1
below the threshold: all other assays above

AKPSRISTVV [IQSEC2, Q5JU85]
3.91: TIAM2, Q8IVF5
4.3: DLG3_1, Q92796
4.18: DLG3_3, Q92796
3.98: SNX27, Q96L92
5.09: LNX2_2, Q8N448
3.65: NOS1, P29475
4.51: SYNJ2BP, P57105
3.49: APBA1_2, Q02410
4.14: PICK1, Q9NRD5
4.5: HTRA1, Q92743
3.89: Inadl_8, Q8NI35
4.82: DLG4_1, P78352
3.77: GRID2IP_2, A4D2P6
below the threshold: all other assays above
